The target of this assay is 人重链铁蛋白(HFn) (人铁蛋白H亚基, wild type, recombinant from E. coli) (human). Briefly: ELISA, antigen coated at 1 μg/ml, purified antibody titrated, HRP goat anti-mouse IgG, OD450.

This note sets out measurements from CN115594762A (KUNSHAN XINYUNDA BIOTECHNOLOGY CO LTD, dated 2023).

Sequence of 人重链铁蛋白(HFn) (人铁蛋白H亚基, wild type, recombinant from E. coli) (human) (chain, as listed by the source): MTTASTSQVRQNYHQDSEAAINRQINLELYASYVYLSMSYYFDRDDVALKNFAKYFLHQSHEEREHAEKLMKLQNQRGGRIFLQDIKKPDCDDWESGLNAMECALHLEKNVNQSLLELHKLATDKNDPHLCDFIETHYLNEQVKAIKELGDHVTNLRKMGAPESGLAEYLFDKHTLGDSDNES

B1: 单克隆抗体3A (抗人重链铁蛋白的抗体3A, secreted by hybridoma 3A7 1B6, CGMCC NO:21906) (antibody, IgG2b, V domains shown)
VH: EVQLQQPGAELVKPGTSVKLSCKASGYIFTSYWMHWVKQRPGQGLEWIGEINPSNARTNYNEKFKSKATLTVDKSSSTTYMQLSSLTSEDSAVYYCARSSYGKNAMDYWGQGTSVTVSS
VL: DIQMTQTPSSLSASLGDRVTISCRTSQDISNYLNWYQQKPDGTVKLLIYYTSRLHSGVPSRFSGSGSGTAYSLTISNLEQEDIATYLCQEGNTLPRTFGGGTKLEIKR
notes: also called 3A单抗; 3A抗体
B1: the EC50 (in general, the concentration that produces a half-maximal response) stood at 3.68 ng/mL.
